Tested on: MS2 coat protein
Test: apparent KD of MS2 coat protein; higher = weaker reporter binding
Conditions: Eterna round: R107
Procedure: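 RNA-MaP round R107: designed RNA switches with theophylline, tryptophan, arginine or FMN aptamers are transcribed on-chip within common flanks. They are titrated with SNAP-549-labelled MS2 coat protein in RNA-MaP buffer (100 mM Tris pH 7.5, 80 mM KCl, 4 mM MgCl2), without ligand or with the indicated ligand. Median apparent KD per design.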

[1] = input ligand: theophylline 20 uM
[2] = input ligand: theophylline 2 mM
[3] = input ligand: tryptophan 2.4 mM

Sequence	apparent KD of MS2 coat protein (input ligand: arginine 13.2 mM) [nM]	apparent KD of MS2 coat protein (input ligand: none) [nM]	apparent KD of MS2 coat protein [1] [nM]	apparent KD of MS2 coat protein [2] [nM]	apparent KD of MS2 coat protein [3] [nM]
UUCAGCUAGUCGGCCGCCACUAUCUGAGGAUCACCCAGGUAAUCCUAACACUGCUUCGGCAGUGGUAGGACCGGGACUAGCUGAG	8.18	14.5	26.3	20	10.6
GCAUCCUAGUCGGCCGCCACUGCAACAUGAGGAUCACCCAUGUACUGCACAUGGGAAUGCAGUAGCAGGACCGGGACUAGGAUGC [(T1)-(M1)-(M2)-(T)''-(M)'-(T)'-(T2)_Design2_2/18/17]	109	294	268	249	48.4
UAUAGUACCAGACAUGAGGAUCACCCAUGUCGAGGACCGGUACGGCCGCCACUCGGCAGUUUGCGUCCUCAGGUACUCCGGGUCA [Larisotexe]	17.6	–	28.3	26.1	–
UAAAACAUGAGGAUCACCCAUGUAAUUGAUACCAGAGUGAUGAUCCUCCCUUGGCAGCAAAUAACGCAUUGGAAACAAUGCGAAA [Mat - Same State Theophlline A - Mod of Eli - D26]	51.4	–	91.6	–	47.8
AUACAUGAGGAUCACCCAUGUGAUGGCCGGCGAGGACCGGUACGGCCGCCACUCGUGAUCCGUCCUGAAAGCAAAGCUUCCAGCA [Terion]	37.4	–	273	437	–
GGACCAGGGAGCGAUACCAGCUUGAGUGUGCUGGCCAGGCACAUGAGGAUCACCCAUGUAGGCCCUUGGCAGCGCUCCCUGGUCC [#1 Exclusion - Theophylline B Attempt #28 (HarryS)]	9.06	9.45	16.5	12.3	14.1
AAUGUAUGCCACAUGAGGAUCACCCAUGUGCGAGGACCGGUACGGCCGCCACUCGGUCGGUGGUUAAUGAAGAUAUACAAUAAUG [XTryp A #12]	10.6	–	20.9	13.5	–
UUUUACAUGAGGAUCACCCAUGUGCGGCGCCGAGGACCGGUACGGCCGCCACUCGCAUGGGCAUGCCGCGAUAUCAUUCCUGAAC [theeternabot_sameState_MS2_Trp_A_43]	53.6	–	249	306	–
AAUACAGCUACGGCCGCCACUUUAACUUGGUAUGGGUCCUUCACAAACAUGAGGAUCACCCAUGUAAGGACCGGGUAGCCUUGUU [theeternabot_exclusion_MS2_Trp_B_35]	21.6	–	28.4	24	–
CUCUGAGUCCGAAAGGACUCAGAGGCGGAUACCAGCGAGGUCCAUCGCCCUUGGCAGCCGAACAUGAGGAUCACCCAUGUCGGUA [#1 Same State - Theophylline A Attempt #28 (HarryS)]	9.74	–	12.1	–	11.2
GAUCUGUCGGGUGAUACCAGCCUCGGCACAUCUCGUGCCGAACAUGAGGAUCACCCAUGUGGCCCUUGGCAGCACAUGACAAAUC [Regebece]	64	–	652	–	1050
UGGUACAUGGCGGCCGCCACUUCACGUAAAAUAAAAACUUGAGGAACACCCAAGUAAUAAGUUGGGAGGACCGGGUCAUGUACCU	35.3	36.2	41.7	39.1	26.1
AUUUGGCGUAGUGUUGCUCGUGGGAUAAAACGAGGACCGGUACGGCCGCCACUCGAUGAUUAACAUGAGGAUCACCCAUGUAAAU [theeternabot_exclusion_MS2_Trp_A_22]	17.5	–	30.6	32.2	–
UCGUGUAUAACGGAUACCAGUGAGAAGGAUACAUGAGGAUCACCCAUGUGAGUUGAUGUACACCCUUGGCAGCUGUAUAUAUCUA [llpmullin]	58.3	–	81.9	–	73.3
AUCGUACCUGAGGAUACCAGCAUGUGAUCAUAACAUGAGGAUCACCCAUGUAAUCAGUGAUGCCCUUGGCAGCUUAGUCGAUACA [Same State - Theophylline B (Freestyle 7)]	58.7	–	101	–	58.3
AUAAAUAUAACCGAUACCAGCCUUAUACAUGAGGAUCACCCAUGUUAUGCUUCCUUUCUUGGCCCUUGGCAGCGGAAAUGGGUAA [SSTheo B #13]	36.2	–	48.4	–	44.8
GGUGGCUGGAUCGAUACCAGCCACCACCGAUAGACCACAUGAGGAUCACCCAUGUUGGGUGGCCCUUGGCAGCGGUCCGGCUGCC [#1 Same State - Theophylline B Attempt #7 (HarryS)]	126	–	679	–	759
GCAAUACAUGAGGAUCACCCAUGUGCAGAUACCAGAGGUGCGUGCCUCCCUUGGCAGCUGCGACGCUCUGGAAGCUUGUGUGUCU [Exclusion Theophylline A GF27]	18.4	–	26.2	–	21.2
UAUUUGGUGCGCGAGUGUUGGAUAAUUGAUACCAGUGAAGAAGAGCGCCCUUGGCAGCGAAUCCUAACAUGAGGAUCACCCAUGU [5.T]	35.9	–	55.3	–	35.4

Sequence	apparent KD of MS2 coat protein (input ligand: arginine 13.2 mM) [nM]	apparent KD of MS2 coat protein (input ligand: none) [nM]	apparent KD of MS2 coat protein [1] [nM]	apparent KD of MS2 coat protein [2] [nM]	apparent KD of MS2 coat protein [3] [nM]
GGCCGAUGGUGCGAUACCAGCUUGAGUGUACUGGCCAGGUACAUGAGGAUCACCCAUGUAAGCCCUUGGCAGCGCGUCAAAGGCC [#1 Exclusion - Theophylline B Attempt #20 (HarryS)]	7.09	11.3	17.6	24.2	10.5
CCUAACCGAUCGGCCGCCACUGACCGGUACCUCUUCGAAACCCGCCACAUGAGGAUCACCCAUGUCAGGACCGGGAUUGCACAGG [Inxeus]	14.4	17.2	23	17.8	38.1
UAUCCACAUGAGGAUCACCCAUGUAGGGAAGGAGCGGUGAUUUCACCAGGUAGGUCGCCUUGCUCAGGGUUGCCGGUGGAAUCGU [Exclusion - Arginine A (Freestyle 34)]	24.9	12.7	19.7	13.3	9.73
UCGAUGGUACCCGAUACCAGCAAUACAUCACAGACCUGAUACAUGAGGAUCACCCAUGUGUGCCCUUGGCAGCGGGUCCUGAAAA [theeternabot_exclusion_MS2_Theo_B_25]	17.5	–	28.5	–	20.6
UUGGGUUUGCGAAGGAGCGGGAAAUAUAUAUAUAUAAUCCUAACAUGAGGAUCACCCAUGUCCCAGGUAGGUCGCGCAGGUUUGG [12.L]	58.1	54.2	81.8	73.2	58.7
AAAAUCCUACUUGAGGAUCACCCAGGUGAAGGAGCGCCCGAAAGGGCAGGUAGGUCGCACCUGAGGAUCACCCUGGUAACCUAAA [ArgEX 9 #DoubleMS2 #OpenEnded]	140	164	171	211	178
UUAAUCAGGUUAGAAAACUAAUUUGCAGAAGGAGCGUGAUAAAACACAGGUAGGUCGCUGAAGGGAACAUGAGGAUCACCCAUGU [AstrosSSArgA#10]	22.9	26.3	32.7	28.5	26
GGUUGAUAUAUAUAUAUAUUGAUUACUGAAGGAGCGGGAAAUAACCCAGGUAGGUCGCAGAGAUCCACAUGAGGAUCACCCAUGU [!0.F]	31.9	42.7	50.4	60.5	56.9
UUCAGCUAGUCGGCCGCCACUACCUGAGGAUCACCCUGGUAAUCCUAACACUGCUUCGGCAGUGGUAGGACCGGGACUAGCUGAG	27.7	28.2	39.7	32.6	225
UAACAUGAGGAUCACCCAUGUUUAGAAGAACGAGGACCGGUACGGCCGCCACUCGAAAAGUGGAAGAAAAGAGGGAUAGAAUGAU [Same State Trp A GF1]	14	–	16	12.2	–
GCAUCAUGAACGGCCGCCACUAAGGAAUGAGCGGCUCUUGCGAUACAUGAGGAUCACCCAUGUCUUAGGACCGGGUUCAUUGUCA [theeternabot_sameState_MS2_Trp_B_49]	69	–	343	322	–
GGAACAUGAGGAUCACCCAUGUAAUCACGACGAGGACCGGUACGGCCGCCACUCGUAUUCACGCAAGGUAGAGGAAUACGUAGGC [theeternabot_exclusion_MS2_Trp_A_2]	15.4	–	17.6	14.3	–
CAAUAAGUACCGGUCCUCAGAUCCUCAUGACGAGGACCGGUACGGCCGCCACUCGAAACAUGAGGAUCACCCAUGUAAUAAUAAU [Brourdmod01]	15.3	–	31.4	24.2	–
CGCAACCAACAUGAGGAUCACCCAUGUGAAGGAGCGCCGAAGAAGGCAGGUAGGUCGCACAUGAAUAAAUCAUGUAAAAGGUUGC [MAT - Exclusion Arginine A - Mod of Eli - D19]	17.7	51.4	64.5	71.2	40.9
CGGGACAUGAGGAUCACCCAUGUACGAUCCCGAGGACCGGUACGGCCGCCACUCGCUAGCGUUGAGUCGCGACUUUCAUAACUAA [theeternabot_sameState_MS2_Trp_A_27]	36.7	–	92.2	83.2	–
GGUUGGUGUGGAGACAUAUUGAUUACUGAAGGAGCGGGAAUAAACCCAGGUAGGUCGCAGAGAUCCACAUGAGGAUCACCCAUGU [!0.P]	121	44.8	42.8	41.2	22.4
UGUAACAUGAGGAUCACCCAUGUGAGUGAUACCAGAUUAGUAGUAGUCCCUUGGCAGCACAUUGGGCGAGUGUAUAGUCUAUGCG [Same State - Theophylline A (Freestyle 11)]	94.6	–	219	–	155
CUUAUAUAUAGAAGGAGCGACAUGAGGAUCACCCAUGUCUACCACGUCGAAAGACGCUCAUGUCAGGUAGGUCGCUAUAUAUAAG [Astros-Eli-mod3]	42.5	152	138	172	120

— the supplement of paper PMC9170038
